This note sets out measurements from PMC8028046 (2021).

In general, Kd refers to the free concentration of one partner at which half of the binding sites on the other are occupied at equilibrium, for simple one-to-one binding. A lower Kd goes with tighter binding.

The target of the test is amyloid-beta fibrils (Homo sapiens, UniProt P05067). As to the kind of experiment: SPR. A general note: SPR reads the build-up and loss of mass on a sensor chip optically.
Chain of amyloid-beta fibrils (P05067 672-713): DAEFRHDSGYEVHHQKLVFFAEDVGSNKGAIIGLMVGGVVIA

B1: proSP-C BRICHOS BRICHOS (protein)
chain: TATFSIGSTGLVVYDYQQLLIAYKPAPGTCCYIMKIAPESIPSLEALTRKVHNFQMECSLQAKPAVPTSKLGQAEGRDAGSAPSGGDPAFLGMAVSTLCGEVPLYYI
Turning to B1, the dissociation constant (Kd) was around 130 nM.
